Source: doi:10.1101/2024.12.17.628619 (bioRxiv, 2024)

Target: His6-DDB1 (human, UniProt Q16531 1-1140)
Test: SEC + other: negative stain EM

Chain of His6-DDB1 (Q16531 whole entry): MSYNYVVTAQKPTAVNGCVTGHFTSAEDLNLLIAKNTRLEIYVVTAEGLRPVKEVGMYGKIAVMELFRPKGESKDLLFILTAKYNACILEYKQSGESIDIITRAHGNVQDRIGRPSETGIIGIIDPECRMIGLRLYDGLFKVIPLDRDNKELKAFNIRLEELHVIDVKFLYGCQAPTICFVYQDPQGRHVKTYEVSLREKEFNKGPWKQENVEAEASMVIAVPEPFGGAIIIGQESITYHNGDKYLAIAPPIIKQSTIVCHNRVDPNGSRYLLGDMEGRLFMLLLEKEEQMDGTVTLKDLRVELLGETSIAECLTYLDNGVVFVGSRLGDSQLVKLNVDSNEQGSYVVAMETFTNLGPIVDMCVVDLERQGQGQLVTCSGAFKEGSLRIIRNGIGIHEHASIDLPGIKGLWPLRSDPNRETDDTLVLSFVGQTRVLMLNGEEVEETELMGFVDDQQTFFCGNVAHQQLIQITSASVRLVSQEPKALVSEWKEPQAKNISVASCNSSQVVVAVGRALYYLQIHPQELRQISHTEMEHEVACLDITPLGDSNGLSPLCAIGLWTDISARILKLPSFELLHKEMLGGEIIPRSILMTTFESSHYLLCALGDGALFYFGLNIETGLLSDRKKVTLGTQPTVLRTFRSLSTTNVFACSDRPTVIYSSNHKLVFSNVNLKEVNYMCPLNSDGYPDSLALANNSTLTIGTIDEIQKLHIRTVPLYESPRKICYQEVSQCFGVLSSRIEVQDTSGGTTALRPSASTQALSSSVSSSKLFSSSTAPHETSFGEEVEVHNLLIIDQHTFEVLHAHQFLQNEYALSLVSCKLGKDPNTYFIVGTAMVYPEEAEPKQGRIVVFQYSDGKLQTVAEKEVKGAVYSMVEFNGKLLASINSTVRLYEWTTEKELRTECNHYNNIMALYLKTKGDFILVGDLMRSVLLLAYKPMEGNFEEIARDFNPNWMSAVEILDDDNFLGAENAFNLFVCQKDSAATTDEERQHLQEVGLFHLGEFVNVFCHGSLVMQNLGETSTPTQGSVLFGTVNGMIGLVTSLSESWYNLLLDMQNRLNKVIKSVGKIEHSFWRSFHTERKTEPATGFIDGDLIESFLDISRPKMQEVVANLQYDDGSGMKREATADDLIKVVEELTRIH

| Binder | binding result |
| --- | --- |
| MBP-AMBRA1^WD40 (residues M1-N204 directly fused to S853-G1044), wild type (domain or fragment, human, UniProt Q9C0C7 1-204, looked up) MKVVPEKNAVRILWGRERGARAMGAQRLLQELVEDKTRWMKWEGKRVELPDSPRSTFLLAFSPDRTLLASTHVNHNIYITEVKTGKCVHSLIGHRRTPWCVTFHPTISGLIASGCLDGEVRIWDLHGGSESWFTDSNNAIASLAFHPTAQLLLIATANEIHFWDWSRREPFAVVKTASEMERVRLVRFDPLGHYLLTAIVNPSNSNIANTTYRLQWWDFTKFDLPEISNASVNVLVQNCKIYNDASCDISADGQLLAAFIPSSQRGFPDEGILAVYSLAPHNLGEMLYTKRFGPNAISVSLSPMGRYVMVGLASRRILLHPSTEHMVAQVFRLQQAHGGETSMRRVFNVLYPMPADQRRHVSINSARWLPEPGLGLAYGTNKGDLVICRPEALNSG | binds |
| MBP-AMBRA1^WD40 H75A/R96A (domain or fragment, human, UniProt Q9C0C7 1-204, looked up) MKVVPEKNAVRILWGRERGARAMGAQRLLQELVEDKTRWMKWEGKRVELPDSPRSTFLLAFSPDRTLLASTHVNANIYITEVKTGKCVHSLIGHRATPWCVTFHPTISGLIASGCLDGEVRIWDLHGGSESWFTDSNNAIASLAFHPTAQLLLIATANEIHFWDWSRREPFAVVKTASEMERVRLVRFDPLGHYLLTAIVNPSNSNIANTTYRLQWWDFTKFDLPEISNASVNVLVQNCKIYNDASCDISADGQLLAAFIPSSQRGFPDEGILAVYSLAPHNLGEMLYTKRFGPNAISVSLSPMGRYVMVGLASRRILLHPSTEHMVAQVFRLQQAHGGETSMRRVFNVLYPMPADQRRHVSINSARWLPEPGLGLAYGTNKGDLVICRPEALNSG | binds |
| MBP-AMBRA1^WD40 W99R (domain or fragment, human, UniProt Q9C0C7 1-204, looked up) MKVVPEKNAVRILWGRERGARAMGAQRLLQELVEDKTRWMKWEGKRVELPDSPRSTFLLAFSPDRTLLASTHVNHNIYITEVKTGKCVHSLIGHRRTPRCVTFHPTISGLIASGCLDGEVRIWDLHGGSESWFTDSNNAIASLAFHPTAQLLLIATANEIHFWDWSRREPFAVVKTASEMERVRLVRFDPLGHYLLTAIVNPSNSNIANTTYRLQWWDFTKFDLPEISNASVNVLVQNCKIYNDASCDISADGQLLAAFIPSSQRGFPDEGILAVYSLAPHNLGEMLYTKRFGPNAISVSLSPMGRYVMVGLASRRILLHPSTEHMVAQVFRLQQAHGGETSMRRVFNVLYPMPADQRRHVSINSARWLPEPGLGLAYGTNKGDLVICRPEALNSG | binds |
| MBP-AMBRA1^WD40 F57A (domain or fragment, human, UniProt Q9C0C7 1-204, looked up) MKVVPEKNAVRILWGRERGARAMGAQRLLQELVEDKTRWMKWEGKRVELPDSPRSTALLAFSPDRTLLASTHVNHNIYITEVKTGKCVHSLIGHRRTPWCVTFHPTISGLIASGCLDGEVRIWDLHGGSESWFTDSNNAIASLAFHPTAQLLLIATANEIHFWDWSRREPFAVVKTASEMERVRLVRFDPLGHYLLTAIVNPSNSNIANTTYRLQWWDFTKFDLPEISNASVNVLVQNCKIYNDASCDISADGQLLAAFIPSSQRGFPDEGILAVYSLAPHNLGEMLYTKRFGPNAISVSLSPMGRYVMVGLASRRILLHPSTEHMVAQVFRLQQAHGGETSMRRVFNVLYPMPADQRRHVSINSARWLPEPGLGLAYGTNKGDLVICRPEALNSG | binds |
